Laboratory results: patent US20260167959A1, “APTAZYME-BASED REGULATABLE GENE EXPRESSION SYSTEMS” (REJUVENATE BIO INC, priority 2022, published 2026)

B1: RA275 (nucleic acid)
DNA: GCGCGTCCTGGATTGAGAATACCAGCATCGTCTTGATGCCCTTGGAAGTCTCCGCGGAAACGCGTACATCCAGCTGACGAGTCCCAAATAGGACGAAACGCGC
modifications: expressed or natural sequence
B2: RA276 (nucleic acid)
DNA: GCGCGTCCTGGATTCGCGGAAACGCGTACATCCAGCTGACGAAGAATACCAGCATCGTCTTGATGCCCTTGGAAGTCTGTCCCAAATAGGACGAAACGCGC
modifications: expressed or natural sequence
B3: RA002 (nucleic acid)
DNA: GCGCGTCCTGGATTCGCGGAAACGCGTACATCCAGCTGACGAGTCCCAAATAGGACGAAACGAGAATACCAGCATCGTCTTGATGCCCTTGGAAGTCTCGCGCGC
modifications: expressed or natural sequence
B4: RA277 (nucleic acid)
DNA: GCGCGTCCTGGATTCGCGGAAACGCGTACATCCGAGAATACCAGCATCGTCTTGATGCCCTTGGAAGTCTCAGCTGACGAGTCCCAAATAGGACGAAACGCGC
modifications: expressed or natural sequence
B5: RA278 (nucleic acid)
DNA: GCGCGTCCTGGATTCGAGTGATACCAGCATCGTCTTGATGCCCTTGGCAGCACTCGGAAACGCGTACATCCAGCTGACGAGTCCCAAATAGGACGAAACGCGC
modifications: expressed or natural sequence
B6: RA027 (nucleic acid)
DNA: GCGCGTCCTGGATTCGCGGAAACGCGTACAGTGATACCAGCATCGTCTTGATGCCCTTGGCAGCACTATCCAGCTGACGAGTCCCAAATAGGACGAAACGCGC
modifications: expressed or natural sequence
B7: RA279 (nucleic acid)
DNA: GCGCGTCCTGGATTCGCGGAAACGCGTACATCCAGCTGACGAGTCCCAAATAGGACGACGAGAATACCAGCATCGTCTTGATGCCCTTGGAAGTCTCGAACGCGC
modifications: expressed or natural sequence
B8: RA280 (nucleic acid)
DNA: GCGCGTCCTGGATTCGCGGAAACGCGTACATCCAGCTGACGAGTCCCAAATAGGAGGAATACCAGCATCGTCTTGATGCCCTTGGAAGTCCCGAAACGCGC
modifications: expressed or natural sequence
B9: RA281 (nucleic acid)
DNA: GCGCGTCCTGGATTCGCGGAAACGCGTACATCCAGCTGACGAGTCCCAAATACGAGAATACCAGCATCGTCTTGATGCCCTTGGAAGTCTCGGGACGAAACGCGC
modifications: expressed or natural sequence
B10: RA282 (nucleic acid)
DNA: GCGCGTCCTGGATTCGCGAGAATACCAGCATCGTCTTGATGCCCTTGGAAGTCTCGCGGAAACGCGTACATCCAGCTGACGAGTCCCAAATAGGACGAAACGCGC
modifications: expressed or natural sequence
B11: RA283 (nucleic acid)
DNA: GCGCGTCCTGGAAGAATACCAGCATCGTCTTGATGCCCTTGGAAGTCTTTCGCGGAAACGCGTACATCCAGCTGACGAGTCCCAAATAGGACGAAACGCGC
modifications: expressed or natural sequence
B12: RA284 (nucleic acid)
DNA: GCGCGTCCTGGATTCGCGGAAACGGAATACCAGCATCGTCTTGATGCCCTTGGAAGTCCGCGTACATCCAGCTGACGAGTCCCAAATAGGACGAAACGCGC
modifications: expressed or natural sequence
B13: RA285 (nucleic acid)
DNA: GCGCGTCCTGGATTCGCGGAAACGCAGTGATACCAGCATCGTCTTGATGCCCTTGGCAGCACTGTACATCCAGCTGACGAGTCCCAAATAGGACGAAACGCGC
modifications: expressed or natural sequence
B14: RA286 (nucleic acid)
DNA: GCGCGTCCTGGATTCGCGGAAAAGAATACCAGCATCGTCTTGATGCCCTTGGAAGTCTCGCGTACATCCAGCTGACGAGTCCCAAATAGGACGAAACGCGC
modifications: expressed or natural sequence
B15: RA287 (nucleic acid)
DNA: GCGCGTCCTGGATTCGCGGAAACGCGTACATCCAGCTGACGAAGTGATACCAGCATCGTCTTGATGCCCTTGGCAGCACTGTCCCAAATAGGACGAAACGCGC
modifications: expressed or natural sequence
B16: RA288 (nucleic acid)
DNA: GCGCGTCCTGGATTCGCGGAAACGCGTACATCCAGCTGACGAGTCCCAAATAAGTGATACCAGCATCGTCTTGATGCCCTTGGCAGCACTGGACGAAACGCGC
modifications: expressed or natural sequence
B17: RA028 (nucleic acid)
DNA: GCGCGTCCTGGATTCGCGGAAACGCGTACATCCAGCTGACGACGGAATACCAGCATCGTCTTGATGCCCTTGGAAGTCCGGTCCCAAATAGGACGAAACGCGC
modifications: expressed or natural sequence
B18: RA289 (nucleic acid)
DNA: GCGCGTCCTGGATTCGCGGAAACGCGTACATCCAGGAATACCAGCATCGTCTTGATGCCCTTGGAAGTCCGCTGACGAGTCCCAAATAGGACGAAACGCGC
modifications: expressed or natural sequence
B19: RA290 (nucleic acid)
DNA: GCGCGTCCTGGATTCGCGGAAACGCGTACATCCAGCTGACGACCGGAATACCAGCATCGTCTTGATGCCCTTGGAAGTCCGGGTCCCAAATAGGACGAAACGCGC
modifications: expressed or natural sequence
B20: RA291 (nucleic acid)
DNA: GCTGTCACCGGAATACCAGCATCGTCTTGATGCCCTTGGAAGTCCGGTCTGATGAGTCCCATAAGGACGAAACAGC
modifications: expressed or natural sequence
B21: RA292 (nucleic acid)
DNA: GCGCGTCGGAATACCAGCATCGTCTTGATGCCCTTGGAAGTCCGCCTGGATTCGCGGAAACGCGTACATCCAGCTGACGAGTCCCAAATAGGACGAAACGCGC
modifications: expressed or natural sequence
B22: RA293 (nucleic acid)
DNA: GCGGGAATACCAGCATCGTCTTGATGCCCTTGGAAGTCCCGTCCTGGATTCGCGGAAACGCGTACATCCAGCTGACGAGTCCCAAATAGGACGAAACGCGC
modifications: expressed or natural sequence
B23: RA294 (nucleic acid)
DNA: GCGCGTCCTGGATTCGCGGAAACGAGAATACCAGCATCGTCTTGATGCCCTTGGAAGTCTCGCGTACATCCAGCTGACGAGTCCCAAATAGGACGAAACGCGC
modifications: expressed or natural sequence
B24: RA295 (nucleic acid)
DNA: GCGCGTCCTGGATTCGCGGAAAGGAATACCAGCATCGTCTTGATGCCCTTGGAAGTCCCGCGTACATCCAGCTGACGAGTCCCAAATAGGACGAAACGCGC
modifications: expressed or natural sequence
B25: RA296 (nucleic acid)
DNA: GCGCGTCCTGGATTCGCGGAAACGCGTACATCCAGCTGACGAGTCCCAAATAGGAGAATACCAGCATCGTCTTGATGCCCTTGGAAGTCTACGAAACGCGC
modifications: expressed or natural sequence
B26: RA297 (nucleic acid)
DNA: GCGCGGGAATACCAGCATCGTCTTGATGCCCTTGGAAGTCCTCCTGGATTCGCGGAAACGCGTACATCCAGCTGACGAGTCCCAAATAGGACGAAACGCGC
modifications: expressed or natural sequence
B27: RA298 (nucleic acid)
DNA: GCCGGAATACCAGCATCGTCTTGATGCCCTTGGAAGTCCGGCGTCCTGGATTCGCGGAAACGCGTACATCCAGCTGACGAGTCCCAAATAGGACGAAACGCGC
modifications: expressed or natural sequence

What follows are molecules tested on Renilla luciferase RNA (assay: Barcoded aptazyme variant library screen: un-cleaved Renilla luciferase RNA by barcode read counts, HEK293-T cells). Settings: un-cleaved Renilla luciferase RNA, HEK293-T cells cultured with 1 mM theophylline (ON) over without theophylline (OFF); barcode read counts, triplicate.
Type: cell-based
Source text: Based on the findings from Example 1, an aptazyme variant library was generated from the T3H48 ribozyme with one of seven variant theophylline aptamers inserted sequentially after each nucleotide of the DNA sequence encoding the T3H48 ribozyme sequence. […] The seven variant theophylline aptamers vary in their communication channels, which are the ribonucleotides of the aptamer that attach to the ribozyme sequence (see, Table 2).
The library was barcoded with unique sequences of nine nucleotides flanked by forward and reverse primer amplification sequences.
The aptazyme library was then PCR amplified and cloned into the psiCHECK™-2 dual luciferase vector in the 3′ UTR of the Renilla luciferase gene. […] The next day, the cells were isolated followed by DNA and RNA extraction using standard methods. The purified RNA was then converted to cDNA and the barcoded portion of the aptazyme library was PCR amplified. Similarly, the DNA was PCR amplified and all the samples were sequenced. All experimental conditions (with theophylline and without theophylline) were performed in triplicate. The read count for each barcode was determined with a custom build code and the data was normalized to identify the un-cleaved fractions of the Renilla luciferase RNA from cells that were cultured in the presence or absence of theophylline for each aptazyme, which was used to obtain the fold-change between ON- and OFF-states (FIG. 2).

Point of comparison: B18, “Fold change in RNA expression between the ON state and the OFF state” value 1.0 fold. Against it:
- B1 — the same, 1.0 fold
- B2 — the same, 1.0 fold
- B4 — the same, 1.0 fold
- B5 — the same, 1.0 fold
- B6 — higher, 2.4 fold
- B7 — the same, 1.0 fold
- B8 — the same, 1.0 fold
- B9 — the same, 1.0 fold
- B10 — the same, 1.0 fold
- B11 — the same, 1.0 fold
- B12 — the same, 1.0 fold
- B13 — the same, 1.0 fold
- B14 — the same, 1.0 fold
- B15 — the same, 1.0 fold
- B16 — the same, 1.0 fold
- B17 — higher, 2.3 fold
- B19 — the same, 1.0 fold
- B20 — the same, 1.0 fold
- B21 — the same, 1.0 fold
- B22 — the same, 1.0 fold
- B23 — the same, 1.0 fold
- B24 — the same, 1.0 fold
- B25 — the same, 1.0 fold
- B26 — the same, 1.0 fold
- B27 — the same, 1.0 fold

With B3 the “Fold change in RNA expression between the ON state and the OFF state” value was greater than 6 fold.
